This data set concerns the target SARS-CoV-2 nsp12 (RdRp), wild type;SARS-CoV-2 nsp7;SARS-CoV-2 nsp8 (SARS-CoV-2;SARS-CoV-2;SARS-CoV-2, UniProt P0DTD1;P0DTD1;P0DTD1 4393-5324;3860-3942;3943-4140, ||). In words: EMSA (native gel); no NTP. As to conditions: protein: recombinant;recombinant;recombinant; tags: C-terminal His10 (TEV-cleaved protein A);GST-3C construct (E. coli); 9.4 kDa on gel;GST-3C construct (E. coli); 22 kDa on gel; copies: 1;1;2; label: Cy3 at template 5' end; Cy5 internal at primer position 12.

B1: Extension Template P1 / Extension Primer P12 short (overhang RNA) (structured_RNA)
RNA 1: AAAAAAAAUUUUUUUUUUUUUUUAAUUCUUAAUCUCACAUAGC
RNA 2: GCUAUGUGAGAUUAAGAAUU
As to B1, the binding result is listed as “binds”.
